Assay results: the RNAGym collection of RNA variant scans (doi:10.1073/pnas.2313332121)
This sample holds only a part of the variants without activity.

B1: TPR 5TU (parent)
chain: GGAUCUUCUCGAUCUAACAAAAAAGACAAAUCUGCCACAAAGCUUGAGAGCAUCUUCGGAUGCAGAGGCGGCAGCCUUCGGUGGCGCGAUAGCGCCAACGUUCUCAACUAUGACACGCAAAACGCGUGCUCCGUUGAAUGGAGUUUAUCAUG

Variants of: B1
Experiment: polymerase ribozyme fitness, log enrichment relative to wild type (log ratio); higher = more active; in vitro selection for triplet polymerase activity
Summary of the method: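 Mutant libraries were PCR-built and transcribed for each subunit of a heterodimeric triplet polymerase ribozyme and selected for one round in triplicate at −7 °C, frozen, before gel excision of extended constructs and streptavidin-bead capture. Input and output libraries were Illumina-sequenced, keeping genotypes with ≥10 input reads and ≥1 read per output. Fitness is a logarithmic ratio of genotype to wild-type enrichment, in base 2, using inverse-variance-weighted replicate averages.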

GGAUCUUCUCGAUCUAACAAAAAAGACAAAUCUGCCACAAAGCUUGAGAGCAUCUACGGAUGCAGAGGCGGCAGUCUUCGGUGGCGCGAUAGCGCCAACGUUCUCAACUAUGACACGCAAAACGCGUGCUCCGUUGAAUGGAGUUUAUCAUG and GGAUCUUCUCGAUCUAACAAAAAAGACAAAUCUGCCACAAAGCUUGAGAGCAUCUACGGAUGCAGAGGCGGCAGCCUUCGGUGGCGCGAUAGCGCAAACGUUCUCAACUAUGACACGCAAAACGCGUGCUCCGUUGAAUGGAGUUUAUCAUG are within 0.2 log units of each other in “polymerase ribozyme fitness (log ratio)” value: -0.839 for the first, -0.833 for the second.

Compared with GGAUCUUCUCGAUCUAACAAAAAAGACAAAUCUGCCACAAAGCUUGAGAGCAUCUACGGAUGCAGAGGCGGCAGGCUUCGGUGGCGCGAUAGCACCAACGUUCUUAACUAUGACACGCAAAACGCGUGCUCCUUUGAAUGGAGUUUAUCAUG, GGAUCUUCUCGAUCUAACAAAAAAGACAAAUCUGCCACAAAGCUUGAGAGCAUCUACUGAUGCAGAGGCGGCAGCCUUCGGUGGCGCGAUAGCGCCAUCCUUCUCAACUAUGACACGCAAAACGCGUGCUCCGUUGAAUGGAGUUUAUCAUG is lower in “polymerase ribozyme fitness (log ratio)” value: -4.17 for the first, no more than -4.2 for the second.

Compared with GGAUCUUCUCGAUCUAACAAAAAAGACAAAUCUGCCACAAAGCUUGAGAGCAUCUACGGAUGCAGAGGCGGCAGCCUUCGGUGGCGCGAUAGCGCCAACGUUCUCAACUAUGACACGCAAAACGCGUGCUCCGUUGCAUGGAGUUUAUCAUG, GGAUCUUCUCGAUCUAACAAAAAAGACAAAUCUGCCACAAAGCUUGAGAGCAUCUACAGAUGCAGAGGCGGCUGCCUUCGGUGGCGCGAUAGCGCGAACGUUCUCAACUAUGACACGCAAAACGCGUGCUCCGUUGAAUGGAGUUUAUCAUG is higher in “polymerase ribozyme fitness (log ratio)” value: -3.11 for the first, -1.81 for the second.

Compared with GGAUCUUCUCGAUCUAACAAAAAAGACAAAUCUGCCACAAAGCUUGAGAGCAUCUACGGAUGCAGAGGAGGCAGCCUUUGGUGGCGCGAUAGGGCCAACGUUCUCAACUAUGACACGCAAAACGCGUGCUCCGUUGAAUGGAGUUUAUCAAG, GGAUCUUCUCGAUCUAACAAAAAAGACAAAUCUGCCACAAAGCUUGAGAGCAUCUACGGAUGCAGAGGCGGCAGCCUUCGGUGGCGCGAUAGCGUCAACGUUCUCAACUAUGACACGCAAAACGCGUGCUCCGUUGAAUGGAGUUUAUCAUG is higher in “polymerase ribozyme fitness (log ratio)” value: no more than -4.2 for the first, 0.199 for the second.

Compared with GGAUCUUCUCGAUCUAACAAAAAAGACAAAUCUGCCACAAAGCUUGAGAGCAUCUACGGAUGCAGAGGCGGCAGCCUUCGGUGGUGCGAUAGCGCCAACGUUCUCAACUAUGACACGCAAAACGCGUGCUCCGUUGAAUGGAGCUUAUCAUG, GGAUCUUCUCGAUCUAACAAAAAAGACAAAUCUGCCACAAAGCUUGAGAGCAUCUACGGAUGCAGAGGCGGCAGCCUUCGGUGGCGCGAUAGCGCCAACGUUCUCAACUAUGACACGCAACACGCGUGCUCCGUUGAAUGGAGUUUAUGAUG is lower in “polymerase ribozyme fitness (log ratio)” value: -0.306 for the first, -3.14 for the second.

Compared with GGAUCUUCUCGAUCUAACAAAAAAGACAAAUCUGCCACAAAGCUUGAGAGCAUCUACGGAUGCAGAGGCGGCAGCCUUCGGUGGCGCGAUAGAGCCAACGUUCUCGACUAUGACACGCAAAACGCGUGCUCCGUUGAAUGGAGUUUAUCAUG, GGAUCUUCUCGAUCUAACAAAAAAGACAAAUCUGCCACAAAGCUUGAGAGCAUCUACGGAUGCAGAGGCGGCAGCCUUCGGUGGCGCGAUAGCGCCAACGUUCUCGACUAUGACACGCAAAACGCGUGCUCCGUUGAAUGGAGUUUAUCAUG is higher in “polymerase ribozyme fitness (log ratio)” value: -1.97 for the first, -0.585 for the second.

First: GGAUCUUCUCGAUCUAACAAAAAAGACAAAUCUGCCACAAAGCUUGAGAGCAUCUACGGAUGCAGAGGCGGCAGCCUUCGGUGGCGUGAUAGCGCCAACGUUCUCAACUAUGACACGCAAAACGCGUGCUCCGUUGAAUGGAGUUUAUCAUG
Second: GGAUCUUCUCGAUCUAACAAAAAAGACAAAUCUGCCACAAAGCUUGAGAGCAUCUACGGAUGCAGAGGCGGCAGCGUUCGGUGGUGCGAUGGCGCCAACGUUCUCAACUAGGACACGUAAAACGCGUGCUCCGUUGAAUAGAAUUUAUCAUG
The “polymerase ribozyme fitness (log ratio)” value of the first is higher: -1.66 for the first, no more than -4.2 for the second.

GGAUCUUCUCGAUCUAACAAAAAAGACAAAUCUGCCACAAAGCUUGAGAGCAUCUACCCAUGCAGAGGCGGCAGCGUUCGGUGGCGCGAUAGCGCCAACGUUCUCAACUAUGACACGCAAAACGCGUGCUCCGUUGAAUGGAGUUUAUCAUG and GGAUCUUCUCGAUCUAACAAAAAAGACAAAUCUGCCACAAAGCUUGAGAGCAUCUACGGAUGCAGAGGCGGCAGCCUUCGGUGGAGCGAUGGCGCCAACGUUCUCAACUAUGACACGCAAAACGCGUUCUCCGUUGAAUGGAGUUUAUCAUG cannot be ordered by “polymerase ribozyme fitness (log ratio)” value: no more than -4.2 for the first, no more than -4.2 for the second.

GGAUCUUCUCGAUCUAACAAAAAAGACAAAUCUGCCACAAAGCUUGAGAGCAUCUACAGAUGCAGAGGCGGCGGCCUUCGGUGGCGCGAUAGCGCUAACGUGCUCAACUAUGACACACAAAACGCGUGCUCCGUAGAAUGAAGUUUAUCAUG and GGAUCUUCUCGAUCUAACAAAAAAGACAAAUCUGCCACAAAGCUUGAGAGCAUCUACGGAUGCAGAGGCGGCAGCGUUCGGUGGCGCGAUAGCGCCAACGUUCUCAACUAUGACACGCAAAACGCGUGCUCCGUUGAAUGGAGUUUAUCAUG cannot be ordered by “polymerase ribozyme fitness (log ratio)” value: no more than -4.2 for the first, no more than -4.2 for the second.

First: GGAUCUUCUCGAUCUAACAAAAAAGACAAAUCUGCCACAAAGCUUGAGAGCAUCUACGGAUGCAGAGGCGGCAGCCUUCGGUGGUGCGAUAGCGCCAACGUUCUCAACUAUGAAACGCAAAACGCGUGCUCCGUUGAAUGCAGUUUAUCAUG
Second: GGAUCUUCUCGAUCUAACAAAAAAGACAAAUCUGCCACAAAGCUUGAGAGCAUCUACGGAUGCAGAGGCGGCAGCCUUCGGUGGCGCGAUAGCGCCAACGUUCUCAACUAUGACACGCAAAACGCGUGCUUCGUUGAAUGGAGUUUAUCAUG
The “polymerase ribozyme fitness (log ratio)” value of the first is lower: no more than -4.2 for the first, 0.529 for the second.

Going from GGAUCUUCUCGAUCUAACAAAAAAGACAAAUCUGCCACAAAGCUUGAGAGCAUCUACAGAUGCAGAGGCGGCAGCCUUCGGUGGCGCGAUAGAGCCAACGUUCUCAACUAUGACACGCAAAACGCGUGCUCCGUUGAAUGGAGUUUAUCAUG to GGAUCUUCUCGAUCUAACAAAAAAGACAAAUCUGCCACAAAGCUUGAGAGCAUCUACGGAUGCAGAGGCGGCAGCCUUCGGUGGCGUGAUAGCGCUAACGUUGUCAACUAUGACACGCAAAACGCGUGCUCCGUUGAAUGGAGUUUAUCAUG, the “polymerase ribozyme fitness (log ratio)” value falls from -1.41 to -3.09.

Going from GGAUCUUCUCGAUCUAACAAAAAAGACAAAUCUGCCACAAAGCUUGAGAGCAUCUACGGAUGCAGAGGCGGCAGCCUUCGGUGGCGCGAUAGCGCCAAAGUUCUCAACUAUGACACGCAAAACGCGUGCUCCGUUGAAUGGAGUUUAUCAUG to GGAUCUUCUCGAUCUAACAAAAAAGACAAAUCUGCCACAAAGCUUGAGAGCAUCUACGGAUGCAGAGGCGGCAGCCUUCGGUGGCGCGAUAGCGCCAACGUUCUCAACUAUGAGACGCAAAACGCGUGCUCCGUUGAAUGGAGUUUAUCAUG, the “polymerase ribozyme fitness (log ratio)” value falls from -1.6 to -3.1.

First: GGAUCUUCUCGAUCUAACAAAAAAGACAAAUCUGCCACAAAGCUUGAGAGCAUCUACGGAUGCAGAGGCGGCAGCUUUCGGUGGCGCGAUAGCGCCAACGUUCUCAACUAUGCCACGCAAAACGCGUGCUCCGUUGAAUGGAGUUUAUCAUG
Second: GGAUCUUCUCGAUCUAACAAAAAAGACAAAUCUGCCACAAAGCUUGAGAGCAUCUACGGAUGCAGAGGCGGCAGCCUUCGGUGGCGUGAUAGCGCCAACGUUCUCAACUAUGACACGCAAAACGCGUGCUCCGUUGAAUGGAGUUUAACAUG
The “polymerase ribozyme fitness (log ratio)” value of the first is higher: -2.48 for the first, -3.33 for the second.

Going from GGAUCUUCUCGAUCUAACAAAAAAGACAAAUCUGCCACAAAGCUUGAGAGCAUCUACGGAUGCAGAGGCGGCAGCCUUCGGUGGCGCGAUAGCGCUAACGUUCUCAACUAUGACACGCAAAACGCGUGCUCCGUUGAAUGGAGUUUAACAUG to GGAUCUUCUCGAUCUAACAAAAAAGACAAAUCUGCCACAAAGCUUGAGAGCAUCUAUGGAUGUAGAGGCGGCAGCCUUCGGUGGCGCGAUAGCGCCAACGAUCCCAAUUAUGACACGCAAAACGCGUGCUCCGUUGAAUGGAGUUUAUCAUG, the “polymerase ribozyme fitness (log ratio)” value falls from -3.44 to no more than -4.2.

GGAUCUUCUCGAUCUAACAAAAAAGACAAAUCUGCCACAAAGCUUGAGAGCAUCUACGGAUGCAGAGGCGGCAGCCUUCGGUGGGUCGAUAGCGCCAACGUUCUCAACUAUGACACGCAAAACGCGUGCUCCGUUGAAUGGAGUUUAUCAUG and GGAUCUUCUCGAUCUAACAAAAAAGACAAAUCUGCCACAAAGCUUGAGAGCAUCUACGGAUGCAGAGGCGGCAGCUUUCGGUGGCGUGAUAGCGCCAACGUUCUCAACUAUGACACGCAAAACGCGUGGUCCGUUGAAUGGAGUUUAUCCUG cannot be ordered by “polymerase ribozyme fitness (log ratio)” value: no more than -4.2 for the first, no more than -4.2 for the second.

Compared with GGAUCUUCUCGAUCUAACAAAAAAGACAAAUCUGCCACAAAGCUUGAGAGCAUCUACGGAUGCAGAGGCGGCAGCCUUCGGUGGCGCGAUAGAGCCAGCGUUCUCAACUAUGACACGCAAAACGCGUGCUCCGUUGAAUGGAGUUUAUCAUG, GGAUCUUCUCGAUCUAACAAAAAAGACAAAUCUGCCACAAAGCUUGAGAGCAUCUACUGAUGCAGAGGCGGCAGCCUUCGGUGGCGCGAUAGCCCCAACGUUCUCAACUAUGACACGCAAAACGCGUGCUCCGUUGAAUGGAGUGUAUCAUG is higher in “polymerase ribozyme fitness (log ratio)” value: -2.63 for the first, 0.0333 for the second.

Going from GGAUCUUCUCGAUCUAACAAAAAAGACAAAUCUGCCACAAAGCUUGAGAGCAUCUACGGAUGCAGAGGCGGCAGCCUUCGGUGGCGUGAUAGCGCCAACGUUCUCAACUAUGACACGCAAAACGCGUGCUGCGUUGAAUGGAGUUUAUCAUG to GGAUCUUCUCGAUCUAACAAAAAAGACAAAUCUGCCACAAAGCUUGAGAGCAUCUACGGAUGCAGAGGCGGCAGCUUUCGGUGGCGCGAUAGCGCCAACGUUCUCAACUAUGACACGCAAAACGUGUGCUCCGUUGAAUGGAGUUUAGCAUU, the “polymerase ribozyme fitness (log ratio)” value falls from -3.21 to -3.64.

Going from GGAUCUUCUCGAUCUAACAAAAAAGACAAAUCUGCCACAAAGCUUGAGAGCAUCUACGGAUGCAGAGGCGGCAGCCUUCGGUGGAGCGAUAGCGCCAACGGUCUCAACUAUGACACGCAAAACGCGUGCUCCGUUGAAUGGAGUUUAUCAUC to GGAUCUUCUCGAUCUAACAAAAAAGACAAAUCUGCCACAAAGCUUGAGAGCAUCUACGGAUGCAGAGGCGGCAGCCUUCGGUGGCGCGAUAGUGCCAACGUGCUCAACUAUGACACGCAAAACGCGUGCUCCGUUGAAUAGAGUUUAUCAUG, the “polymerase ribozyme fitness (log ratio)” value falls from -4.1 to no more than -4.2.

First: GGAUCUUCUCGAUCUAACAAAAAAGACAAAUCUGCCACAAAGCUUGAGAGCAUCUACGGAUGCAGAGGCGGCAGUCUUCGGUGGCGCGAUAGCGCCAACGUUCUCAACUAUGACACGCAACACGCGUUCUCCGUUGAAUGGAGUUUAUCAUG
Second: GGAUCUUCUCGAUCUAACAAAAAAGACAAAUCUGCCACAAAGCUUGAGAGCAUCUACGGAUGCAGAGGCGGCAGCCUUCGGUGGCGCGAUAGCGGCAGCGUUCUCAACUAUGACACGCAAAACGCGUGCUCCGUUGAAUGGAGUUUAUCAUG
The “polymerase ribozyme fitness (log ratio)” value of the first is lower: -2.63 for the first, -1.91 for the second.
